# In patent US20040023887A1 (published 2004):
# Positions of bridges follow the written chain, without caps; N, C: chain ends. Chains are numbered I, II in the order given. No end group written: not given here.
# Assays:
# Insulin Receptor (IR) = Insulin Receptor (IR) (UniProt P06213 28-956, limits assumed); test: BIAcore competition: IR pre-incubated with about 40 µM peptide, residual binding to immobilised insulin
# Protocol: Flowcell-1 was used for background binding to correct for any non-specific binding. […] The surface was regenerated with 25 mM NaOH.
# [1] = molecular target: T1, human insulin receptor (HIR) (human, UniProt P06213-2 28-1370, limits assumed); test: 125I-insulin competition on purified HIR
# T1 construct: Also used for the WGA-purified recombinant human insulin receptor of the kinase assay
# [2] = molecular target: T2, Soluble IGF-1R (R&D Systems, Cat. # 391-GR/CF) (human, UniProt P08069 31-935); test: phage ELISA; IGF-1R ratio divided by IR ratio
# T2 construct: extracellular domain; the precursor is cleaved into alpha and beta subunits; also called sIGF-1R
# [3] = molecular target: T2, Soluble IGF-1R (R&D Systems, Cat. # …); test: phage ELISA, receptor coated on plate; A405 over non-fat milk
# [4] = molecular target: T3, Insulin receptor prepared according to Bass et al., 1996 (soluble IR-immunoglobulin chimera) (human, UniProt P06213 28-956); test: as above
# T3 construct: extracellular domain; also called sIR-Fc; soluble IR (Bass construct); not shown: immunoglobulin constant domains replacing the transmembrane and intracellular domains
# [5] = molecular target: T4, human insulin receptor (HIR), purified from transfected cells after solubilization with Triton X-100 (human, UniProt P06213-2 28-1370, limits assumed); test: competition with 125I-insulin on solubilized HIR, PEG precipitation
# T4 construct: mature
# [6] = molecular target: T5, human insulin receptor (HIR) (human, UniProt P06213-2 28-1370, limits assumed); test: 125I-insulin competition on purified HIR
# T5 construct: detergent-solubilised receptor
binder,measurement,setting,value
KWLDQEWAWVQCEVYGRGCPSKK [D8 (synthetic peptide)],% Binding,Insulin Receptor (IR),33%
same,Result (RUs),Insulin Receptor (IR),41.6 RU
"S433 (also: C-terminus of chain 2 linked to Lys16 of chain 1, bond at chain A 16 to a chain's C-terminus) peptide 1: ESFYDWFERQLGGGGK peptide 2: WLDQEWAWVQ",Kd,[1],110 nM
LDQEWAVQCEVYGRGCPSESFYDWFERQLG [S484],Kd,[1],87 nM
"S438 (not fully specified (bridges); cysteine pairing not given here; also: C-terminus of chain 2 linked to Lys16 of chain 1, bond at chain A 16 to a chain's C-terminus) peptide 1: ESFYDWFERQLGGGGK peptide 2: DQEWAWVQCEVYGRGCPS",Kd,[1],30 nM
S442 (disulfide II:5-II:12 (inferred); also: bond at chain A 16 to a chain's C-terminus) peptide 1: ESFYDWFERQLGGGGK peptide 2: AWVQCEVYGRGCPS,Kd,[1],160 nM
DRAFYNGLRDLVGAVYGAWD [20C11],% Binding,Insulin Receptor (IR),38%
same,Result (RUs),Insulin Receptor (IR),49 RU
S444 (not fully specified (bridges); cysteine pairing not given here; also: C-C branched: chain 2 C-terminus bonded to Lys16 side chain) peptide 1: ESFYDWFERQLGGGGK peptide 2: VQCEVYGRGCPS,Kd,[1],190 nM
AETSAQVGWQRLWSVWPGDHWSTLDPFYHKLSELLRESGA (library tags and phage coat protein not included) [B6L-3-G5-IR],IGF-1R/IR ratio comparison,[2],1.4 ratio
same,ratio over background (IGF-1R),[3],2 fold over background
same,ratio over background (IR),[4],1.4 fold over background
CSMAAVAEAGDDDDPFYHKLSELCQGS (library tags and phage coat protein not included) [B6Hα-3-F1-IR],ratio over background (IGF-1R),[3],2.4 fold over background
same,ratio over background (IR),[4],1.3 fold over background
LSCLAYSRHGIWRPSTDLGLGRSVGEGSVSTRWRGYDWFE (tags and coat protein not included; Formula 10 (Group 6) clone) [40F-4-D1-IGFR],ratio over background (IGF-1R),[3],4.6 fold over background
same,ratio over background (IR),[4],0.3 fold over background
VRGFQGGTVWPGYEWLRNAA (tags and coat protein not included; Formula 10 (Group 6) clone) [R20β-4-E8-IR],ratio over background (IGF-1R),[3],34.9 fold over background
same,ratio over background (IR),[4],3.6 fold over background
"S423 (not fully specified (bridges); cysteine pairing not given here; also: C-terminus of chain 2 linked to Lys13 of chain 1, bond at chain A 13 to a chain's C-terminus) peptide 1: ESFYDWFERQLGK peptide 2: ACAWPTYWNCG",Kd,[1],62 nM
"S415 (not fully specified; C-terminus joined to chemical linker 23 of Table 3; C-C linked dimer, Synthetic truncated RP9 homodimer) peptide: ESFYDWFERQLGKX ESFYDWFERQLGKX",Kd,[5],100 nM
"S440 (not fully specified (bridges); cysteine pairing not given here; also: C-terminus of chain 2 linked to Lys16 of chain 1, bond at chain A 16 to a chain's C-terminus) peptide 1: ESFYDWFERQLGGGGK peptide 2: EWAWVQCEVYGRGCPS",Kd,[1],99 nM
GSLDESFYDWFERQL [S395],Kd,[6],81 nM
GIISQSCPESFYDWFAGQVSDPWWCW (also called G33) [S326],Kd,[6],590 nM
"S437 (not fully specified (bridges); cysteine pairing not given here; also: C-terminus of chain 2 linked to Lys16 of chain 1, bond at chain A 16 to a chain's C-terminus) peptide 1: ESFYDWFERQLGGGGK peptide 2: LDQEWAWVQCEVYGRGCPS",Kd,[1],0.69 nM
GLDHSDAVGVHLGFAWPAQARGRWEAGGLEDTWAGYDWL (tags and coat protein not included; Formula 10 (Group 6) clone) [40F-4-B1-IGFR],ratio over background (IGF-1R),[3],3 fold over background
same,ratio over background (IR),[4],0.2 fold over background
"S441 (not fully specified (bridges); cysteine pairing not given here; also: C-terminus of chain 2 linked to Lys16 of chain 1, bond at chain A 16 to a chain's C-terminus) peptide 1: ESFYDWFERQLGGGGK peptide 2: WAWVQCEVYGRGCPS",Kd,[1],120 nM
VTFTSAVFHENFYDWFVRQVS [H2],% Binding,Insulin Receptor (IR),27%
same,Result (RUs),Insulin Receptor (IR),34.6 RU
"S439 (not fully specified (bridges); cysteine pairing not given here; also: C-terminus of chain 2 linked to Lys16 of chain 1, bond at chain A 16 to a chain's C-terminus) peptide 1: ESFYDWFERQLGGGGK peptide 2: QEWAWVQCEVYGRGCPS",Kd,[1],46 nM
"S443 (not fully specified (bridges); cysteine pairing not given here; also: C-terminus of chain 2 linked to Lys16 of chain 1, bond at chain A 16 to a chain's C-terminus) peptide 1: ESFYDWFERQLGGGGK peptide 2: WVQCEVYGRGCPS",Kd,[1],170 nM
"S432 (not fully specified (bridges); cysteine pairing not given here; also: C-terminus of chain 2 linked to Lys16 of chain 1, bond at chain A 16 to a chain's C-terminus) peptide 1: ESFYDWFERQLGGGGK peptide 2: CEVYGRGCPS",Kd,[1],180 nM
LCQSWGVRIGWLTGLCP [2A9],% Binding,Insulin Receptor (IR),100%
same,Result (RUs),Insulin Receptor (IR),128 RU
TFYSCLASLLTGTPQPNRGPWERCRKK [S327],Kd,[6],21 nM
